According to patent publication US20110151530:

Tested on: IcmBmp, icmB gene product of Methylibium petroleiphilum (subunit of hydroxyisobutyryl-CoA mutase)

B1: IcmAmp, icmA gene product of Methylibium petroleiphilum (subunit of hydroxyisobutyryl-CoA mutase) (enzyme)
chain: MTWLEPQIKSQLQSERKDWEANEVGAFLKKAPERKEQFHTIGDFPVQRTYTAADIADTPLEDIGLPGRYPFTRGPYPTMYRSRTWTMRQIAGFGTGEDTNKRFKYLIAQGQTGISTDFDMPTLMGYDSDHPMSDGEVGREGVAIDTLADMEALLADIDLEKISVSFTINPSAWILLAMYVALGEKRGYDLNKLSGTVQADILKEYMAQKEYIYPIAPSVRIVRDIITYSAKNLKRYNPINISGYHISEAGSSPLQEAAFTLANLITYVNEVTETGMHVDEFAPRLAFFFVSQGDFFEEVAKFRALRRCYAKIMKERFGAKNPESMRLRFHCQTAAATLTKPQYMVNVVRTSLQALSAVLGGAQSLHTNGYDEAFAIPTEDAMKMALRTQQIIAEESGVADVIDPLGGSYYVEALTTEYEKKIFEILEEVEKRGGTIKLIEQGWFQKQIADFAYETALRKQSGQKPVIGVNRFVENEEDVKIEIHPYDNTTAERQISRTRRVRAERDEAKVQAMLDQLVAVAKDESQNLMPLTIELVKAGATMGDIVEKLKGIWGTYRETPVF
Activity of purified enzyme (mUI/mg): Hydroxyisobutyryl-CoA mutase (with 3-Hydroxybutyryl-CoA 1 mM in aerobic conditions): 2 mUI/mg
Activity of purified enzyme (mUI/mg): Hydroxyisobutyryl-CoA mutase (with 3-Hydroxybutyryl-CoA 1 mM in anaerobic conditions): 46 mUI/mg
Activity of purified enzyme (mUI/mg): Hydroxyisobutyryl-CoA mutase (with 3-Hydroxybutyryl-CoA 10 mM in anaerobic conditions): 223 mUI/mg
